Reference: PMC6996891

Target: attachment invasion locus (Ail) protein, wild type (Yersinia pestis)
Assay: native gel or EMSA

attachment invasion locus (Ail) protein, wild type (natural protein)
percent oligomers: 20%
